Data taken from patent US20250051437A1.

Experiments:
[1] = biological target: monkey (crab-eating macaque) CDH17 fused to moxGFP, overexpressed on HEK293T cells (monkey (crab-eating macaque)); assay: flow cytometry (BD C6), 1 µg antibody on HEK293T Macaque CDH17 moxGFP cells, labelled anti-human IgG Fc secondary antibody; same antibody on HEK293T Parental: 817.99
[2] = biological target: monkey (crab-eating macaque) CDH17 fused to moxGFP, overexpressed on HEK293T cells (monkey (crab-eating macaque)); assay: flow cytometry on HEK293T monkey CDH17mGFP mass population, 20 µg/ml
[3] = biological target: monkey (crab-eating macaque) CDH17 fused to moxGFP, overexpressed on HEK293T cells (monkey (crab-eating macaque)); assay: KinExA, cell-based, HEK293T monkey CDH17mGFP mass population
[4] = biological target: monkey (crab-eating macaque) CDH17 fused to moxGFP, overexpressed on HEK293T cells (monkey (crab-eating macaque)); assay: KinExA, cell-based, HEK293T overexpressing monkey CDH17 fusion (FIG. 16)
[5] = biological target: monkey (crab-eating macaque) CDH17 fused to moxGFP, overexpressed on HEK293T cells (monkey (crab-eating macaque)); assay: flow cytometry (BD C6), 1 µg antibody on HEK293T Macaque CDH17 moxGFP cells, labelled anti-human IgG Fc secondary antibody; same antibody on HEK293T Parental: 593.57
[6] = biological target: monkey (crab-eating macaque) CDH17 fused to moxGFP, overexpressed on HEK293T cells (monkey (crab-eating macaque)); assay: flow cytometry (BD C6), 1 µg antibody on HEK293T Macaque CDH17 moxGFP cells, labelled anti-human IgG Fc secondary antibody; same antibody on HEK293T Parental: 600.46

FL4-H [1]	Cross Reactivity by Flow [2]	Kd [3]	Kd [4]	FL4-H [5]	FL4-H [6]	Binder
182000	29800	0.946 nM	< 1 nM	–	–	humanized anti-CDH17 antibody 07-0653-h43 (antibody, human IgG1, V domains shown) VH: QVQLVQSGAEVKKPGASVKVSCKASGYTFTDYYMNWVRQAPGQGLEWMGVIYPYSGGIGYAQKFQGRVTMTVDKSTSTAYMELSSLRSEDTAVYYCARGRGDYFGLFDFWGQGTTVTVSS VL: DIQLTQSPSSLSASVGDRVTITCRATSSLSYIHWYQQKPGKAPKPLIYEISKLASGVPSRFSGSGSGTDYTLTISSLQPEDFATYYCQQWNYPFTFGQGTKLEIK
–	16900	0.657 nM	< 1 nM	145000	–	humanized anti-CDH17 antibody 07-0646-h7 (antibody, human IgG1, V domains shown) VH: QVQLVQSGAEVKKPGASVKMSCKASGYTFTSYNMHWVRQAPGQGLEWIGAIYPGNGDTSYAQKFQGRATLTVDTSTSTAYMELSSLRSEDTAVYYCARGRGRYFEYWGQGTTLTVSS VL: DIQLTQSPSSLSASVGDRVTMTCRASSSVSSSYLHWYQQKPGKAPKLLIYSTSNLASGVPSRFSGSGSGTDYTLTISSVQPEDFATYYCQQYDSSPSTFGQGTKLEIK
–	41300	0.336 nM	< 1 nM	–	159000	humanized anti-CDH17 antibody 07-0663-h7 (antibody, human IgG1, kappa, V domains shown) VH: QVQLVQSGAEVKKPGSSVKISCKVSGYTFTDHTIHWMRQAPGQGLEWIGYIFPRDDIVVYAQKFQGRATLTADKSTSTAYMELSSLRSEDTAVYYCARPPYYYSRNFYFDYWGQGTTLTVSS VL: DIQMTQSPSSLSASVGDRVTITCRVSSIISSSKLHWYQQKPGKAPKPLIYGTSTLASGVPSRFSGSGSGTDYTLTISSLQPEDFATYYCQQWSNYPFTFGQGTKLEIKR
